{
  "source": "paper doi:10.1101/2020.07.08.161463",
  "about": "(bioRxiv, 2020)",
  "target": "the molecule itself",
  "assay": "SEC-MALS",
  "data": [
    {"protein": "G domain of SEPT7 (domain or fragment) YRKSVKRGFEFTLMVVGESGLGKSTLINSLFLTDLYSPEYPGPSHRIKKTVQVEQSKVLIKEGGVQLLLTIVDTPGFGDAVDNSNCWQPVIDYIDSKFEDYLNAESRVNRRQMPDNRVQCCLYFIAPSGHGLKPLDIEFMKRLHEKVNIIPLIAKADTLTPEECQQFKKQIMKEIQEHKIKIYEFPETDDEEENKLVKKIKDRLPLAVVGSNTIIEVNGKRVRGRQYPWGVAEVENGEHCDFTILRNMLIRTHMQDLKDVTNNVHYENYRSRKLAAVT", "values": [
      {"measurement": "stoichiometry N", "result": 2}
    ]}
  ]
}
